According to the supplement of paper PMC10567573:

B1: FAM189A2 (parent)
chain: GSEAAVIPLDLGCTQVTQDGDIPN

Variants of: B1
Assay: protein stability index of a GFP-peptide fusion (GPS, HEK-293T) (PSI 1-6); higher = more stable
Conditions: c terminus: a fixed tail appended
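Note: lentivirally expressed fusions sorted by FACS into six bins by GFP to DsRed ratio, PSI derived from sequencing read proportions per bin multiplied by bin number.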

| Variant | protein stability index |
| --- | --- |
| GSEAAVIPLDLPCTQVTQDGDIPN [G12P] | 5.52 |
| GSEAAVIPLDLRCTQVTQDGDIPN [G12R] | 4.87 |
| GSEAAVIPLDLQCTQVTQDGDIPN [G12Q] | 5.44 |
| GSEAAVIPLDLLCTQVTQDGDIPN [G12L] | 4.93 |
| GSEAAVIPLDLKCTQVTQDGDIPN [G12K] | 5.2 |
| GSEAAVIPLDLACTQVTQDGDIPN [G12A] | 5.5 |
| GSEAAVIPLDLICTQVTQDGDIPN [G12I] | 4.96 |
| GSEAAVIPLDLYCTQVTQDGDIPN [G12Y] | 5.05 |
| GSEAAVIPLDLNCTQVTQDGDIPN [G12N] | 5.09 |
| GSEAAVIPLDLHCTQVTQDGDIPN [G12H] | 4.87 |
| GSEAAVIPLDLCCTQVTQDGDIPN [G12C] | 4.6 |
| GSEAAVIPLDLMCTQVTQDGDIPN [G12M] | 4.82 |
| GSEAAVIPLDLTCTQVTQDGDIPN [G12T] | 5.38 |
| GSEAAVIPLDLVCTQVTQDGDIPN [G12V] | 5.16 |
| GSEAAVIPLDLWCTQVTQDGDIPN [G12W] | 4.62 |
| GSEAAVIPLDLSCTQVTQDGDIPN [G12S] | 4.37 |
| GSEAAVIPLDLECTQVTQDGDIPN [G12E] | 4.86 |
| GSEAAVIPLDLDCTQVTQDGDIPN [G12D] | 5.61 |
| GSEAAVIPLDLFCTQVTQDGDIPN [G12F] | 4.76 |
| GSEAAVIPLDLGCFQVTQDGDIPN [T14F] | 3.97 |
| GSEAAVIPLDLGCMQVTQDGDIPN [T14M] | 4.86 |
| GSEAAVIPLDLGCAQVTQDGDIPN [T14A] | 5.29 |
| GSEAAVIPLDLGCPQVTQDGDIPN [T14P] | 5.49 |
| GSEAAVIPLDLGCKQVTQDGDIPN [T14K] | 5.46 |

| Variant | protein stability index |
| --- | --- |
| GSEAAVIPLDLGCGQVTQDGDIPN [T14G] | 5.17 |
| GSEAAVIPLDLGCVQVTQDGDIPN [T14V] | 5.31 |
| GSEAAVIPLDLGCQQVTQDGDIPN [T14Q] | 5.57 |
| GSEAAVIPLDLGCRQVTQDGDIPN [T14R] | 4.41 |
| GSEAAVIPLDLGCCQVTQDGDIPN [T14C] | 4.97 |
| GSEAAVIPLDLGCDQVTQDGDIPN [T14D] | 5.25 |
| GSEAAVIPLDLGCNQVTQDGDIPN [T14N] | 5.31 |
| GSEAAVIPLDLGCSQVTQDGDIPN [T14S] | 5.27 |
| GSEAAVIPLDLGCYQVTQDGDIPN [T14Y] | 5.09 |
| GSEAAVIPLDLGCIQVTQDGDIPN [T14I] | 4.99 |
| GSEAAVIPLDLGCHQVTQDGDIPN [T14H] | 4.91 |
| GSEAAVIPLDLGCEQVTQDGDIPN [T14E] | 5.51 |
| GSEAAVIPLDLGCLQVTQDGDIPN [T14L] | 5.17 |
| GSEAAVIPLDLGCWQVTQDGDIPN [T14W] | 4.16 |
| GSEAAVIPLDLGCTQVRQDGDIPN [T17R] | 5.18 |
| GSEAAVIPLDLGCTQVSQDGDIPN [T17S] | 5.5 |
| GSEAAVIPLDLGCTQVDQDGDIPN [T17D] | 5.46 |
| GSEAAVIPLDLGCTQVLQDGDIPN [T17L] | 4.88 |
| GSEAAVIPLDLGCTQVWQDGDIPN [T17W] | 4.69 |
| GSEAAVIPLDLGCTQVMQDGDIPN [T17M] | 5.14 |
| GSEAAVIPLDLGCTQVEQDGDIPN [T17E] | 5.68 |
| GSEAAVIPLDLGCTQVKQDGDIPN [T17K] | 5.4 |
| GSEAAVIPLDLGCTQVNQDGDIPN [T17N] | 5.19 |
| GSEAAVIPLDLGCTQVFQDGDIPN [T17F] | 5 |

| Variant | protein stability index |
| --- | --- |
| GSEAAVIPLDLGCTQVYQDGDIPN [T17Y] | 4.87 |
| GSEAAVIPLDLGCTQVIQDGDIPN [T17I] | 4.75 |
| GSEAAVIPLDLGCTQVGQDGDIPN [T17G] | 5 |
| GSEAAVIPLDLGCTQVPQDGDIPN [T17P] | 5.44 |
| GSEAAVIPLDLGCTQVHQDGDIPN [T17H] | 5.17 |
| GSEAAVIPLDLGCTQVQQDGDIPN [T17Q] | 5.24 |
| GSEAAVIPLDLGCTQVAQDGDIPN [T17A] | 5.21 |
| GSEAAVIPLDLGCTQVCQDGDIPN [T17C] | 5.19 |
| GSEAAVIPLDLGCTQVVQDGDIPN [T17V] | 5.37 |
| GSEAAVIPLDLGKTQVTQDGDIPN [C13K] | 5.18 |
| GSEAAVIPLDLGITQVTQDGDIPN [C13I] | 5.73 |
| GSEAAVIPLDLGSTQVTQDGDIPN [C13S] | 5.43 |
| GSEAAVIPLDLGQTQVTQDGDIPN [C13Q] | 5.71 |
| GSEAAVIPLDLGNTQVTQDGDIPN [C13N] | 5.61 |
| GSEAAVIPLDLGETQVTQDGDIPN [C13E] | 5.54 |
| GSEAAVIPLDLGATQVTQDGDIPN [C13A] | 5.17 |
| GSEAAVIPLDLGWTQVTQDGDIPN [C13W] | 4.36 |
| GSEAAVIPLDLGDTQVTQDGDIPN [C13D] | 5.46 |
| GSEAAVIPLDLGPTQVTQDGDIPN [C13P] | 5.67 |
| GSEAAVIPLDLGMTQVTQDGDIPN [C13M] | 4.93 |
| GSEAAVIPLDLGRTQVTQDGDIPN [C13R] | 5.33 |
| GSEAAVIPLDLGHTQVTQDGDIPN [C13H] | 5.63 |
| GSEAAVIPLDLGFTQVTQDGDIPN [C13F] | 5.04 |
| GSEAAVIPLDLGTTQVTQDGDIPN [C13T] | 5.48 |

| Variant | protein stability index |
| --- | --- |
| GSEAAVIPLDLGLTQVTQDGDIPN [C13L] | 5.46 |
| GSEAAVIPLDLGGTQVTQDGDIPN [C13G] | 5.54 |
| GSEAAVIPLDLGVTQVTQDGDIPN [C13V] | 4.77 |
| GSEAAVIPLDLGYTQVTQDGDIPN [C13Y] | 5.3 |
| GSEAAVIPLDLGCTQVTQDGEIPN [D21E] | 5.03 |
| GSEAAVIPLDLGCTQVTQDGCIPN [D21C] | 4.71 |
| GSEAAVIPLDLGCTQVTQDGHIPN [D21H] | 4.38 |
| GSEAAVIPLDLGCTQVTQDGIIPN [D21I] | 4.45 |
| GSEAAVIPLDLGCTQVTQDGAIPN [D21A] | 5.07 |
| GSEAAVIPLDLGCTQVTQDGGIPN [D21G] | 5.27 |
| GSEAAVIPLDLGCTQVTQDGFIPN [D21F] | 3.95 |
| GSEAAVIPLDLGCTQVTQDVDIPN [G20V] | 4.97 |
| GSEAAVIPLDLGCTQVTQDWDIPN [G20W] | 4.73 |
| GSEAAVIPLDLGCTQVTQDDDIPN [G20D] | 5.56 |
| GSEAAVIPLDLGCTQVTQDYDIPN [G20Y] | 5.09 |
| GSEAAVIPLDLGCTQVTQDIDIPN [G20I] | 5.29 |
| GSEAAVIPLDLGCTQVTQDRDIPN [G20R] | 4.89 |
| GSEAAVIPLDLGCTQVTQDMDIPN [G20M] | 4.83 |
| GSEAAVIPLDLGCTQVTQDPDIPN [G20P] | 4.97 |
| GSEAAVIPLDLGCTQVTQDKDIPN [G20K] | 5.28 |
| GSEAAVIPLDLGCTQVTQDSDIPN [G20S] | 5.32 |
| GSEAAVIPLDLGCTQVTQDQDIPN [G20Q] | 4.75 |
